{
  "source": "patent US20240344138A1",
  "about": "“TARGETED THERAPIES IN CANCER” (Feng Biosciences, Inc, priority 2021, published 2024)",
  "molecules": {"B1": {"name": "Chemo/Immune Checkpoint Inhibitor/Bavituximab: regimen of chemotherapy, immune checkpoint inhibitor and bavituximab (antibody, chains of the INN, looked up, V domains shown)", "VH": "EVQLQQSGPELEKPGASVKLSCKASGYSFTGYNMNWVKQSHGKSLEWIGHIDPYYGDTSYNQKFRGKATLTVDKSSSTAYMQLKSLTSEDSAVYYCVKGGYYGHWYFDVWGAGTTVTVSS", "VL": "DIQMTQSPSSLSASLGERVSLTCRASQDIGSSLNWLQQGPDGTIKRLIYATSSLDSGVPKRFSGSRSGSDYSLTISSLESEDFVDYYCLQYVSSPPTFGAGTKLELK", "modifications": "with chemotherapy and checkpoint inhibitor"}, "B2": {"name": "Chemo/Immune Checkpoint Inhibitor/Navicixizumab: regimen of chemotherapy, immune checkpoint inhibitor and navicixizumab (antibody, chains of the INN, looked up, V domains shown)", "VH": "QVQLVQSGAEVKKPGASVKISCKASGYSFTAYYIHWVKQAPGQGLEWIGYISNYNRATNYNQKFKGRVTFTTDTSTSTAYMELRSLRSDDTAVYYCARDYDYDVGMDYWGQGTLVTVSS", "VL": "DIVMTQSPDSLAVSLGERATISCRASESVDNYGISFMKWFQQKPGQPPKLLIYAASNQGSGVPDRFSGSGSGTDFTLTISSLQAEDVAVYYCQQSKEVPWTFGGGTKVEIK", "VH2": "QVQLVQSGAEVKKPGASVKVSCKASGYTFTNYWMHWVRQAPGQGLEWMGDINPSNGRTSYKEKFKRRVTLSVDKSSSTAYMELSSLRSEDTAVYFCTIHYDDKYYPLMDYWGQGTLVTVSS", "VL2": "B2 VL", "modifications": "with chemotherapy and checkpoint inhibitor"}},
  "key": {"[1]": {"test_system": "locally advanced or metastatic gastric cancer", "assay": "First-line clinical trial of chemotherapy, immune checkpoint inhibitor and bavituximab, outcome by TME phenotype", "assay_type": "in vivo, human", "method": "(§1) A clinical trial is run to determine whether locally advanced or metastatic gastric cancer tumor microenvironment phenotypes correlate to clinical responses when patients are treated with chemotherapy, an immune checkpoint inhibitor, and Bavituximab in the first-line setting. The analysis includes samples from 120 patients across 2 treatment arms (60 patients in each arm). Patients are randomized to receive either (i) chemotherapy and an immune checkpoint inhibitor, or (ii) chemotherapy, an immune checkpoint inhibitor, and bavituximab. RNA gene signatures are analyzed from tumor samples acquired before any treatments and TME phenotypes are determined. Patients are followed for clinical response, progression-free survival, and overall survival.\nGastric cancer patients are randomized to receiving a regimen of chemotherapy (i.e. capecitabine, 5-FU, cisplatin etc.) plus an immune checkpoint inhibitor (anti-PD-(L)1—i.e., an inhibitor to PD-1 or PD-L1) therapy, or a regimen of chemotherapy/immune checkpoint inhibitor/Bavituximab. The combination of chemotherapy/immune checkpoint inhibitor/Bavituximab increases overall response rate (ORR), 6 month progression-free survival (PFS) and overall survival (OS) patients with advanced gastric cancer compared to the regimen of chemotherapy/immune checkpoint inhibitor alone as shown in TABLE 23. […] One hundred and twenty (120) patients are enrolled, 60 in each of the treatment groups with equal representation across the 4 stromal phenotypes (15 in each phenotype per treatment group). The correlation between each TME phenotype is tested against clinical outcome data. In immune active (IA) and immune suppressed (IS) patients the use of the regimen of chemotherapy/immune checkpoint inhibitor/Bavituximab confers benefit in comparison to patients classified to angiogenic (A) and immune desert (ID) TME phenotype classes as shown in the TABLE 24."}, "[2]": {"test_system": "locally advanced or metastatic gastric cancer", "assay": "First-line clinical trial of chemotherapy, immune checkpoint inhibitor and navicixizumab, outcome by TME phenotype", "assay_type": "in vivo, human", "method": "as §1, with “inhibitor, and Navicixizumab in the” for “inhibitor, and Bavituximab in the”, “immune checkpoint inhibitor or (ii)” for “immune checkpoint inhibitor, or (ii)”, “immune checkpoint inhibitor and Navicixizumab.” for “immune checkpoint inhibitor, and bavituximab.”, “inhibitor and Navicixizumab. RNA gene” for “inhibitor, and bavituximab. RNA gene”\nGastric cancer patients are randomized to receiving a regimen of chemotherapy (e.g., capecitabine, 5-FU, cisplatin etc.) plus an immune checkpoint inhibitor (anti-PD-(L)1—e.g., an inhibitor to PD-1 or PD-L1) therapy, or a regimen of chemotherapy/immune checkpoint inhibitor/Navicixizumab. […] The correlation between each TME phenotype is tested against clinical outcome data. In immune active (IA), immune suppressed (IS) and angiogenic (A) patients the use of the regimen of chemotherapy/immune checkpoint inhibitor/Navicixizumab confers benefit in comparison to patients classified to the immune desert (ID) TME phenotype class as shown in the TABLE 26."}},
  "data": [
    {"molecule": "B1", "values": [
      {"measurement": "6 Month PFS (%)", "setting": "[1]; A (n = 15)", "result": 46.7, "unit": "%"},
      {"measurement": "ORR (%)", "setting": "[1]; A (n = 15)", "result": 46.7, "unit": "%"},
      {"measurement": "OS (months)", "setting": "[1]; A (n = 15)", "result": 8.2, "unit": "months"},
      {"measurement": "6 Month PFS (%)", "setting": "[1]; IA (n = 15)", "result": 80.0, "unit": "%"},
      {"measurement": "ORR (%)", "setting": "[1]; IA (n = 15)", "result": 73.3, "unit": "%"},
      {"measurement": "OS (months)", "setting": "[1]; IA (n = 15)", "result": 20.2, "unit": "months"},
      {"measurement": "6 Month PFS (%)", "setting": "[1]; ID (n = 15)", "result": 60.0, "unit": "%"},
      {"measurement": "ORR (%)", "setting": "[1]; ID (n = 15)", "result": 53.3, "unit": "%"},
      {"measurement": "OS (months)", "setting": "[1]; ID (n = 15)", "result": 11.8, "unit": "months"},
      {"measurement": "6 Month PFS (%)", "setting": "[1]; IS (n = 15)", "result": 73.3, "unit": "%"},
      {"measurement": "ORR (%)", "setting": "[1]; IS (n = 15)", "result": 66.7, "unit": "%"},
      {"measurement": "OS (months)", "setting": "[1]; IS (n = 15)", "result": 19.8, "unit": "months"},
      {"measurement": "6 Month PFS (%)", "setting": "[1]; whole treatment group (n = 60)", "result": 65, "unit": "%"},
      {"measurement": "ORR (%)", "setting": "[1]; whole treatment group (n = 60)", "result": 60, "unit": "%"},
      {"measurement": "OS (months)", "setting": "[1]; whole treatment group (n = 60)", "result": 15, "unit": "months"}
    ]},
    {"molecule": "B2", "values": [
      {"measurement": "6 Month PFS (%)", "setting": "[2]; A (n = 15)", "result": 66.7, "unit": "%"},
      {"measurement": "ORR (%)", "setting": "[2]; A (n = 15)", "result": 60.0, "unit": "%"},
      {"measurement": "OS (months)", "setting": "[2]; A (n = 15)", "result": 15.4, "unit": "months"},
      {"measurement": "6 Month PFS (%)", "setting": "[2]; IA (n = 15)", "result": 73.3, "unit": "%"},
      {"measurement": "ORR (%)", "setting": "[2]; IA (n = 15)", "result": 66.7, "unit": "%"},
      {"measurement": "OS (months)", "setting": "[2]; IA (n = 15)", "result": 17.4, "unit": "months"},
      {"measurement": "6 Month PFS (%)", "setting": "[2]; ID (n = 15)", "result": 53.3, "unit": "%"},
      {"measurement": "ORR (%)", "setting": "[2]; ID (n = 15)", "result": 46.7, "unit": "%"},
      {"measurement": "OS (months)", "setting": "[2]; ID (n = 15)", "result": 11.5, "unit": "months"},
      {"measurement": "6 Month PFS (%)", "setting": "[2]; IS (n = 15)", "result": 73.3, "unit": "%"},
      {"measurement": "ORR (%)", "setting": "[2]; IS (n = 15)", "result": 73.3, "unit": "%"},
      {"measurement": "OS (months)", "setting": "[2]; IS (n = 15)", "result": 19.7, "unit": "months"},
      {"measurement": "6 Month PFS (%)", "setting": "[2]; whole treatment group (n = 60)", "result": 67, "unit": "%"},
      {"measurement": "ORR (%)", "setting": "[2]; whole treatment group (n = 60)", "result": 63, "unit": "%"},
      {"measurement": "OS (months)", "setting": "[2]; whole treatment group (n = 60)", "result": 16, "unit": "months"}
    ]}
  ]
}
